Measurements: article PMC9834170 (Cell Reports Medicine, 2023)

Columns and labels:
[1] = target: T1, SARS-CoV-2 prototype RBD with human IgG Fc-tag (SARS-CoV-2, UniProt P0DTC2); test: cell-based or functional assay
[2] = target: T1, SARS-CoV-2 prototype RBD with human IgG …; test: SPR

B1: nanobody R14 (VHH)
VHH: QVQLQESGGGLVQPGGSLRLSCAVSGFTLDYYAIGWFRQAPGKEREGVSCISSSDGSTSYADSVKGRFTISRDNAKNTVYLQMNSLKPEDTALYYCAATPATYYSGRYYYQCPAGGMDYWGQGTQVTVSS
[1]
  IC50 of neutralization of live SARS-CoV-2 in Vero cells (blocks RBD with hACE2): 1.3 nM

B2: nanobody S43 (VHH)
VHH: QVQLQESGGGLVQPGGSLRLTCAPSGFTLDYYAIGWFRQAPGKEREGVSCISSNNSTYYADSVKGRFTISRDNAKNTVYLQMNSLKPEDTAVYYCAAEPDYSGVYYYTCGWTDFGSWGQGTQVTVSS
[1]
  IC50 of neutralization of live SARS-CoV-2 in Vero cells (blocks S with ACE2): 40.7 nM
[2]
  Kd: 0.18 nM
